According to article PMC2762092 (The Journal of Cell Biology, 2009):

T1: 6xHis-tagged SPN-2 (full-length) (C. elegans, UniProt Q20898 1-761)
T1 sequence: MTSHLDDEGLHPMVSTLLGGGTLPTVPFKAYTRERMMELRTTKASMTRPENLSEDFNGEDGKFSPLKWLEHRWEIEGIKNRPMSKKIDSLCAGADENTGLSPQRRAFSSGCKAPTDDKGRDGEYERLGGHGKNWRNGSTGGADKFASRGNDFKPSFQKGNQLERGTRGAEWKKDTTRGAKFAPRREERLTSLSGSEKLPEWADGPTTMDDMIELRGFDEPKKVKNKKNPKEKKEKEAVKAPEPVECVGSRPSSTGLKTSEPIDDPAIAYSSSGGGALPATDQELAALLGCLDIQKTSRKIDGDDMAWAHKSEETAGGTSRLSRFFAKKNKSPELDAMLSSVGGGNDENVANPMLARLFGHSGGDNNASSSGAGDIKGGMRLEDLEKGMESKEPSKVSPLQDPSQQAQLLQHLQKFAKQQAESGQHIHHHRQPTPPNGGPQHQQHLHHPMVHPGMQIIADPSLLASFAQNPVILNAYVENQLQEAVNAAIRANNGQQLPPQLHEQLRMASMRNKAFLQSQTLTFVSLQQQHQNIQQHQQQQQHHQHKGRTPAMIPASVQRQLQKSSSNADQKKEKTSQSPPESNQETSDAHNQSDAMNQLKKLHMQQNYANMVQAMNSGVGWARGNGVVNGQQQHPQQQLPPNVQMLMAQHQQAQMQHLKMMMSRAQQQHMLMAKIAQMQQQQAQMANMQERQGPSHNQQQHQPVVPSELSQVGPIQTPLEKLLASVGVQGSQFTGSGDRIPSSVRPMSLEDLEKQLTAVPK

T2: 6xHis-tagged SPN-2N (SPN-2 N-terminal fragment, 1-399 aa) (C. elegans, UniProt Q20898 1-399)
T2 sequence: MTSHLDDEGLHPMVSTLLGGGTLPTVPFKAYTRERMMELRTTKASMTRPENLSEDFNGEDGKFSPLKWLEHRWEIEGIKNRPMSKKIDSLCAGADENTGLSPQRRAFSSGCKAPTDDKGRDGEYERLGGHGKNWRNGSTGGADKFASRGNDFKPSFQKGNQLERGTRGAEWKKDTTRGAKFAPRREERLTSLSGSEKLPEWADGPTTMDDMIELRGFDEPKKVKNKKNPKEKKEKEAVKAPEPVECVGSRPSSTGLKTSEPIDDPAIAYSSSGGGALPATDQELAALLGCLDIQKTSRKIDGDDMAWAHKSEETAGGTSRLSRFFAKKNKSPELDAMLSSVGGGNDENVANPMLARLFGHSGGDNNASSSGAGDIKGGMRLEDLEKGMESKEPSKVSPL


Key:
Experiment in all cases: pull-down
[1] = target: T1, 6xHis-tagged SPN-2 (full-length)
[2] = target: T2, 6xHis-tagged SPN-2N (SPN-2 N-terminal …)
[3] = target: T1, 6xHis-tagged SPN-2 (full-length); remark: listed apart in the source

Binder | Kd [1] | binding result [2] | binding result [3]
GST–IFE-1 (natural protein) MTETEQTTAPIYPLKRNWTWWYLNDERNKSWEDRLKKVYTFNTVSEFWALYDAIRPPSGLNALCDYNVFRDDIQPMWEVPENSNGGRWLIVIDKGKTPEMVDAIWLEILMALVGEQFGKDMESICGLVCNVRGKGSKISVWTKDCNDDETNMRIGVVLKEKLMAASKDHSKPLFDVIRYEDHESCQKKTSSVVKAKLSLHSSDAPVAEKSAV | 0.033 µM |  | 
GST–IFE-2 (natural protein) MSEEPVAAPGTISHPVYKLKRNWTWWYLNDERNKSWEERLKNVKTFSSVGEFWALHDSIKPPSGLNPPSDYNVFRDGIEPMWEVPQNQNGGRWLITIEKGRTPEIMDTIWTEILMAMIGEQFSDDIESLCGIVCNVRGKGSKISVWTTNSADDGANLRIGGVLKQVLNNASMIHQRPLYDVLRYEDHESCQKKTSSGVKAKHAIYAVEPREEKAPVPVSTETPATPAT |  | binds | binds
GST–IFE-5 (natural protein) MTELTTPIYPLQRNWSWWFLNDDRNASWQDRLKKVYTFNTVPEFWAFYEAILPPSGLNDLCDYNVFRDDIQPKWEAPENWDGGRWLIIINKGKTPEVLDAVWLEILLALIGEQFGKDMESICGLVCNVRGQGSKISVWTKNCNDDDTNMRIGVVLKEKLMAAASKAHSKPLFDVIHYQTHRNCVKKTTSALKYKFSLKSIV |  | binds | binds
